From the nanobody polyreactivity screen of Harvey et al. (2022)

Assay: yeast display, Sf9 membrane polyspecificity reagent, FACS + sequencing; frameworks hold sequencing errors
Outline: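 Galactose-induced (36–48 hours) yeast carrying a synthetic nanobody display library were exposed to 10% biotinylated, detergent-solubilized Sf9 membrane reagent at 4 °C for 1 hour. FACS followed streptavidin microbead enrichment, using low and high (top ~1%) gates for expression (anti-HA) and reagent binding (streptavidin). Colony PCR, MiSeq 2 × 250 sequencing and CDR-length filtering followed. Labels for polyreactivity reflect the gate of origin.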

Sequence	polyreactivity (PSR sort gate)
QVQLVESGGGLVQAGGSLRLSCAASGRISFRYAMGWYRQAPGKERELVAAINRGGITNYADSVKGRFTISRDNAKNTVYLQMNSLKPEDTAVYYCAARYASPRYKSKMDYWGQGTQVTVSS	high polyreactivity
QVQLVESGGGLVQAGGSLRLSCAASGSILCTNAMGWYRQAPGKERELVAAITTSGASTYYADSVKGRFTISRANAKNSVYLPMNSLKPEDSAVYYCAAPSRYRYYWGNYWGQGTQVTVSS	high polyreactivity
QVQLVESAGGLVHAGGSLRLSCAASGFNFGFNAMGWDRQAPGKERELVAVISARGGRTYYADSVKGRFTISRDNAKNSVYLQMNSLKPEDSAVYYSAADDFFRYFFTHWVGDDYWGQGTQVSVSS	low polyreactivity
QDQLVDSRGGLVQAGGSLRLSCAASGLIFRSYAMGWSRQAPGKERELVAAITDLFWSTYYADSVKGRFTISRDYAKNTVYLQMNSLKPEDNAVFYCARDDWVYTNVEMDYWGQGTQVTVSS	high polyreactivity
QVQLQESGGGLVHPGGSLRLSCAASCSISHYIFMGWYRQAPGKEREFVAGIGYGGTTNYADSVKGRFTISRDNAKNTVYLQMNSLKPEDTAMYYCAAREATEFYLYYWGQGTQVTVSS	low polyreactivity
QVQLVESGGGLVQAGGSLRLSCAASGSIFVTYDLGWYRQAAGKERELVAGISGSGSTNYADSVKGRFTISRDNAKNTVYLQMNSLKPEDTAVYYCNTDGLWSAEYDYWGQGTQVTVSS	low polyreactivity
QVQLVESGGGLVQAGGTLRLSCAASGIIFHWYAMGWYRQAPGKERELVAAITQSGGSTSYADSVKGRFTISRDNAKNTVYLQMNSLIPEDTAVYYCNAREVRDEYNYWGQGTQVTVSS	low polyreactivity
QVQLVESGGGLVQAVGSLRLSCAASGRTFNSYTMGWYRQAPGKERELVAAISSGGSTTYADSVKGRFTISRDNAKNTVYLQMNSLKPEDTAVYYCAAGLVYRGYRRDYWGQGTQVTVSS	low polyreactivity
QVQLVESGGGLVQAGGSLRLSCAASGFTFRRYAMGWYRQAPGKERELVAAITRDDSTNYADSVKGRFTISRDNAKNTVYLQMNSLKPEDTAVYYCAARLWYPYYYWGQGTQVTVSS	high polyreactivity
QVQLVESGGGLVQAGGSLRLSCAASGFTLNAYAMGWYRQAPGKERELVAAISRNGGRTYYADSVKGRFTISRDNAKNTVYLQMNSLKPEDTAVYYCNAVSGTIARPYDPYDYWGQGTQVTVSS	high polyreactivity
QVQLVESGGGLVQAGGSLRLSCAASGRTFFTYAMGWYRQAPGKERELVAAITGSGGSTSYADSVKGRFTISRDNAKNTVYLQMNSLKPEDTAVYYCAADWQELEYDYWGQGTQVNVSS	low polyreactivity
QVQLVESGGGLVQAGGSLRLSCAASGSNSGYYVMGWYRQAPGKERELVAAITWRGGSTYYADSVKGRFTISRDNAKNTVYLQMNSLKPEDTAVYYCARSRYLWYTVPPKYGYWGQGTQVTVSS	high polyreactivity
QGQLVESGGGLVQAGGSLRLSCAASGRIFTYYAMGWYRQAPGKERELVAAISWSGGSTYYADSVKGRFTISRDNAKNTVYLQMNSLKPEDTAVYYCAAVGYAGLPYGLRPNNSGYWGQGTQVTVSS	low polyreactivity
QVQLVESGGGLVQAGGSLRLSCAASGSIFQSNAMGWYRQAPGKEREFVAAITASGGRTYYADSVKGRFTISRDNAKNTDYLLMNSLKPEDTAVYFCAARGRYYWGGRSYDYWGHGTQVTVSS	high polyreactivity
QVQLVESGGGLVQAGGRLRLSCAASGSTFGANAMGWYRQAPGKEREFVAAISRSGVRTYYADSVKGRFTISRDNAKNTVFLQMNSLKPEDTAVYYCAADGYWWTDTRYDYCGQGTQVTVSS	low polyreactivity
QVQLVESGRGLVQAGGSLRLSCAASGSTFRYNAMGWYRQAPGKERELVAAINRGGGTDYADSVKGRFTISRDNAKNTDYLQMNSLKPEDTAVYYCAKQFVSYNRWLAYGYWGQGTQVTVSS	low polyreactivity
QDHLVESGGGIVQAGGSLRLSCAASGRTFHLNAIGWYRQAPGKARELVAAITNSGGRTSNADSVKGRFTISRDNAKNTVYLQMNSLKPQVTEVFFCNVEVTYSSGKYDYWGQGTQVTVSS	low polyreactivity
QVQLVESGGGLDQAGCSLRISCAASGRIFIQNTMGWYRQAPGKERELVAAITRSGGRTYYADSVKGRFTFSRDNAKNTVYLQMNSLKPEDTAVYYCNRRPATRAYLYDYWGQGTQVTVSS	high polyreactivity
QVQHVESGGGIVQAGGSLRLSCAASGIIFIGNAMGWYRQAPGKERELVAAITYTGGSTYYADSVKGRFTISRDNAKNTVYLQMNSLKPEDTAVYYCAVDRTHLEDDYWGQGTQVTVSS	low polyreactivity
QVQLVDSGGGLVQAGGSLSLICAASGSNFRYYAMGWYRKAPGKERELVDAINWSGGSTYYADSVKGRFTSSRDNAKNTVYLQMNSLKPEHTAVYSCNAVGWRSLHRDYWGQGTQVTLSS	high polyreactivity
QVQLVESGGGLVQAGGSLRLSCAASGFTFTSFAMGWYRQAPGKERELVAAISARGGRTNYADSVKGRFTISRDNAKNTVYLQKNSLKPEDTAVYYCAADGFRAAYLYDYWGQGTQVTVSS	high polyreactivity
QVQLVESGGGLVQAGGSLRISCAASGRIFYFNTMGWYRQAPGKERELVAAISLSGGRTYYADSVKGRFTISRDNAKNTVYLQMNSLKREDSAVYYCNAVARSRSRDTSKGDYWGQGTQVTVSS	high polyreactivity

Sequence	polyreactivity (PSR sort gate)
QVQLVESGGGLVQAGGSRRISCAASGITFKWYAMGWYRQAPGKERELVAAISWSTGSTYYADSVKGRFTISRDNAKNTVYLQMNSLKPEDTAVSDCAADLQLPNLGDSYDYWGQGTQVTVSS	high polyreactivity
QVQLVESGGGLVQAGGSLRLSCAASGRTFDTYAMGWYRQAPWKERELVAAITRRTYYADSVKGRFTISRDNAKNSVYLQMNSLKPEDTAVYYCAVRFLRKWTSSRHYGYWGQGTQVTVSS	high polyreactivity
QVQLVESGGGLVQAGGSLRLSCAASGIIFRYYALGWYRKAPRKERELVAAINWRGGRTYYADSVKGRFTISRDNAKNTVYLQMNSLKPEDTAVYYCAAYIYYPYRNDYWGQGTQVTVSS	high polyreactivity
QVQLEESGGGLDQAGGSLRLSCAASGSTFYKNAMGWYRQAPGKERELVARISGRGGSTDYADSVKGRFTISRDNAKNTVYLQMNSLKPDDTAVYYCNAGKYSSSDALYDYWGQGTQVTVSS	high polyreactivity
QVQLVESGGGLVQAGGSLRLSCAASGRIFAYNTMGWSRQAPGKERELVAVITSGGSTNYADSVKGRFTISRDNAKNTVYLQMNSLKPEDTAVYYCAKRPYCRSGGSRYDYWGQGTQVTVSS	high polyreactivity
QVQLVESVGGLVQAGGSLRLSCAASGSNFGSYAMGWYRQAPGKERSTYYADSVKGRFTISRDNAKNTVYLQMNSLKPEDTAVYYCAADTYGYQGSAGGHWGQGTQVTVSS	low polyreactivity
QVQLVESGGGLVQAGGSLRLSCAASGRTFVRNAMGWYRQAPGKERELVAAISRGGRTNYADSVKGRFTISRDNAKNTVYLQMNSLKPEDTPVYYCATGAGYYSDYDYWGQVTQVTVSS	high polyreactivity
QVQLVESGGGLVQAGGSHRLSCADSGFILAYYAMGWYRPAPGKERELVAAISIGSSTDYADSVKGRFTISRDNAKNTVYLQMNSLKPEDTAVYYCAARDYYYEYDYWGQGTQVTVSS	low polyreactivity
QVQLVESGGGLVQAGGSLRLSCAASGLTFYQYAMGWYRQAPGKERELVAAISKSAGSTYYADSVKGRFTISRDNAKNTVYLQMNSLKPEDTAVYYCNAARPFTRVPRQTWKMGYWGQGTQVTVSS	high polyreactivity
QVQLVESGGGLVQAGGSLRLSCAASGSIFAYNTMGWYRQAPGKERELVAAITGRAGSTYYADSVKGRFTISRDNAKNTVYLQMNSLKPEDTAVYYCNAPTWVRGGYDYWGQGTQVTVSS	high polyreactivity
QVQLVESGGGLVKAGGSLRLSCAASGRNFKTYAMGWYRQAPGKERELVAAISRDGRTYYADSVKGRFTISRDNAKNTVYLQMNSLKPEDTAVYFCNKRSYRKGDYWGQGTQVTVSS	low polyreactivity
QVQLVESGGGLVQAGGSLRLSCAASGRTFLDNAMGWYRQAPGKERELVAAISYSGGSTYYADSVKGRFTISRDNAKNTVYLQMNSLKPEDTAVYYCAADPRQYDYYLLAYDYWGQGTQVTVSS	low polyreactivity
QVQLVESGGGLVQAGGSLRLSCAASGFTFYYYAMGWYRQAPGKERELVAAISSRGGNTYYADSVKGRFTISRDNAKNTVYLQMNSLKPEDTAVYYCASVPLKYDYWGQGTQVTVSS	high polyreactivity
QVQHVESGGGLVQAGGSLRLSCAASGRIFRGYAMGWYRQAPGKERELVAVISYSGTRTYYADSVKGRFTISRDNAKNTVYLQMNSLKPEDTAVYYCNARANGFKDGYWGQGTQVTVSS	high polyreactivity
QDQLVESGGGLVQAGGSLRLSCAASGFTFTWNAMGWYRQAPGKERELVAGITRGGSTNYADSVKGRFTISRDNAKNTVYLQMNSLKPEDTAVYYCNVSFYFHHAGYDYWGQGTQVTVSS	low polyreactivity
QVQLVESGGGLVQAGGSLRLSCAASGSTFYGYAMGWYRQAPGKERELVAAITRSGGSTYYADSVKGRFTISRDNAKNTVYLQMNSLIPEDTEVYYCNKDGYKGGVGYDYWGQGTQVTVSS	high polyreactivity
QVQLVESGGGLVQAGGSLRLSCAASGRTFFYYTMGWYRQAPGKEREFVASISWSGASTYYADSVKGRFTISRDNAKNTVYLQMNSLKPEDSAVYYCAAPVTGGAYGYDYWGQGTQVTVSS	high polyreactivity
QVQLVESGSGLVQAGGSLRLSCAASGSIFVNYGMGRYRQAPGKERELVAAINRNGGRTYYADSVKGRFTISRDNAKNTVYLQMNSLKPEDTAVYYCNALYPGGLSLSRLDYWGQGTQVTVSS	high polyreactivity
QVQLVESGGGLVQAGGSLRLSCAASGRTFIYYAMGWYRQAPGKEREFVAIISWNGTSTNYADSVKGRFTISRDKAKNTVYLQMNSLKPEDTAVYYCAASFWSDYYRYDYWGQGTQVTVSS	low polyreactivity
QVQLLESGGGLVQAGGSLRLSCAASGLTFNTYAMGWYIQAPGKERELVAAISRGGGSTYYADSVKGRFTISRDNAKNTVYLQMNSLKPEDTAVYYCNAEKRASYLLYDYWGQGTQVTVSS	high polyreactivity
QVQLVESGGGLFQAGGSLRLSCAASGFTFWYYAMGWYRQAPGKERELVAAISASGGSTYYADSVKVRFTISRDNAKNTVYLQMNCLKPEDTAVYYCAARYPSKFYNTYDRDYWGQGTQVTVSS	high polyreactivity
